Legend:
[1] = biological target: antigen of the binding ELISA (not given); assay: binding ELISA relative to reference standard; 25 C inverted, initial
[2] = biological target: antigen of the binding ELISA (not given); assay: binding ELISA relative to reference standard; 25 C inverted, 0.5 month
[3] = biological target: antigen of the binding ELISA (not given); assay: binding ELISA relative to reference standard; 25 C inverted, 1 month
[4] = biological target: antigen of the binding ELISA (not given); assay: binding ELISA relative to reference standard; 25 C upright, 6 months
[5] = biological target: antigen of the binding ELISA (not given); assay: binding ELISA relative to reference standard; 2 to 8 C inverted, 3 months
[6] = biological target: antigen of the binding ELISA (not given); assay: binding ELISA relative to reference standard; 40 C inverted, initial
[7] = biological target: antigen of the binding ELISA (not given); assay: binding ELISA relative to reference standard; 2 to 8 C upright, initial
[8] = biological target: antigen of the binding ELISA (not given); assay: binding ELISA relative to reference standard; 2 to 8 C inverted, 6 months
[9] = biological target: antigen of the binding ELISA (not given); assay: binding ELISA relative to reference standard; 25 C inverted, 2 months
[10] = biological target: antigen of the binding ELISA (not given); assay: binding ELISA relative to reference standard; 2 to 8 C inverted, 1 month
[11] = biological target: antigen of the binding ELISA (not given); assay: binding ELISA relative to reference standard; 25 C upright, initial
[12] = biological target: antigen of the binding ELISA (not given); assay: binding ELISA relative to reference standard; 40 C inverted, 0.5 month
[13] = biological target: antigen of the binding ELISA (not given); assay: binding ELISA relative to reference standard; 40 C inverted, 1 month
[14] = biological target: antigen of the binding ELISA (not given); assay: binding ELISA relative to reference standard; 2 to 8 C inverted, initial
[15] = biological target: antigen of the binding ELISA (not given); assay: binding ELISA relative to reference standard; 25 C inverted, 3 months
[16] = biological target: antigen of the binding ELISA (not given); assay: binding ELISA relative to reference standard; 2 to 8 C inverted, 12 months

B1: ADI-58125 (antibody, human IgG1, lambda, V domains shown)
VH: EVQLVESGGGLVKPGGSLRLSCAASGFTFSSYYMNWVRQAPGKGLEWVSSISEDGYSTYYPDSLKGRFTISRDSAKNSLYLQMNSLRADDTAVYYCARDFSGHTAWAGTGFEYWGQGTLVTVSS
VL: QSVLTQPPSVSGAPGQRITISCTGSSSNIGAGYDVHWYQQLPGTAPKLLIYGSSSRNSGVPDRFSGSKSGTSASLAITGLQAEDEADYYCQSYDSSLSVLYTFGTGTKVTVLG
B1 was tested, and the Binding ELISA, % of reference standard activity (% of reference standard activity) [1] was 114, the Binding ELISA, Reference Standard activity % (% of reference standard activity) [1] was 114 and the Binding ELISA, % of reference standard activity (% of reference standard activity) [2] was 109. For the same binder, the Binding ELISA, Reference Standard activity % (% of reference standard activity) [2] was 109, the Binding ELISA, % of reference standard activity (% of reference standard activity) [3] was 102 and the Binding ELISA, Reference Standard activity % (% of reference standard activity) [3] was 102. The Binding ELISA, % of reference standard activity (% of reference standard activity) [4] was 91, the Binding ELISA, % of reference standard activity (% of reference standard activity) [5] was 111 and the Binding ELISA, % of reference standard activity (% of reference standard activity) [6] was 114. For the same binder, the Binding ELISA, Reference Standard activity % (% of reference standard activity) [6] was 114, the Binding ELISA, % of reference standard activity (% of reference standard activity) [7] was 114 and the Binding ELISA, % of reference standard activity (% of reference standard activity) [8] was 108. For the same binder, the Binding ELISA, % of reference standard activity (% of reference standard activity) [9] was 111, the Binding ELISA, Reference Standard activity % (% of reference standard activity) [9] was 111 and the Binding ELISA, % of reference standard activity (% of reference standard activity) [10] was 101. The Binding ELISA, % of reference standard activity (% of reference standard activity) [11] was 114, the Binding ELISA, Reference Standard activity % (% of reference standard activity) [11] was 114 and the Binding ELISA, % of reference standard activity (% of reference standard activity) [12] was 99. For the same binder, the Binding ELISA, Reference Standard activity % (% of reference standard activity) [12] was 99, the Binding ELISA, % of reference standard activity (% of reference standard activity) [13] was 94 and the Binding ELISA, Reference Standard activity % (% of reference standard activity) [13] was 94. The Binding ELISA, % of reference standard activity (% of reference standard activity) [14] was 114, the Binding ELISA, % of reference standard activity (% of reference standard activity) [15] was 94 and the Binding ELISA, % of reference standard activity (% of reference standard activity) [16] was 93.

Reference: patent US20240425567A1
